Consider four molecules from publication PMC9482650, “Quantitative fragmentomics allow affinity mapping of interactomes” (Nature Communications, 2022).

As a reminder, the pKd is the negative decadic logarithm of the Kd, by convention in mol/L.

Some targets named below: HTRA2, O43464; SCRIB_2, Q14160; PARD3_3, Q8TEW0; MAST1, Q9Y2H9; LNX1_2, Q8TBB1; GIPC2, Q8TF65; PDZRN4_1, Q6ZMN7; LIMK2, P53671; DLG4_1, P78352; TJP1_2, Q07157; IL16_1, Q14005.
Assay in all cases: holdup assay
Set-up in all cases: key: below the threshold = too weak to quantify, mostly under pKd 3.1 to 4

In the next test the target is T1, NHERF3_3, Q5T2W1.
T1 sequence (Q5T2W1 238-333, limits assumed, looked up): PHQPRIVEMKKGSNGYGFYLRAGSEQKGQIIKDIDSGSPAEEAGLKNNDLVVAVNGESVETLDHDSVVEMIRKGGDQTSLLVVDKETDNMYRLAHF

A further test deals with T2, SHANK1, Q9Y566.
T2 sequence (Q9Y566 658-767, limits assumed, looked up): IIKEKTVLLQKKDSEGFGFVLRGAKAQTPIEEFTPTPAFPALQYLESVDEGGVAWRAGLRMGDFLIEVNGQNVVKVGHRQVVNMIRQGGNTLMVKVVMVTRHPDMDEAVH

A further test concerns the target T3, SNTB1, Q13884.
T3 sequence (Q13884 107-205, limits assumed, looked up): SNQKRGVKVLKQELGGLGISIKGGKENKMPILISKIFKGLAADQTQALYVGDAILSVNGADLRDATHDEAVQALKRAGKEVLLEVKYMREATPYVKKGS

The target in a further test is T4, DLG3_1, Q92796.
T4 sequence (Q92796 125-227, limits assumed, looked up): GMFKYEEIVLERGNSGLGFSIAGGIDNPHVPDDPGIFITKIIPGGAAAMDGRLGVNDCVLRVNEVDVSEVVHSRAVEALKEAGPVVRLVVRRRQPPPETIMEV

For the next test, the target named is T5, SNTA1, Q13424.
T5 sequence (Q13424 82-180, limits assumed, looked up): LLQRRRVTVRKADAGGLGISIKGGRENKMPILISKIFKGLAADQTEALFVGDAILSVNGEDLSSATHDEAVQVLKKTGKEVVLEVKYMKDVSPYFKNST

For the next test, the target named is T6, DLG3_3, Q92796.
T6 sequence (Q92796 374-475, limits assumed, looked up): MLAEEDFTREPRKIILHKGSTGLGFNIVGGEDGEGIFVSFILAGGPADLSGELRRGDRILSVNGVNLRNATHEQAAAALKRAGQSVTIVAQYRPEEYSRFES

The target of a further test is T7, CARD11, Q9BXL7.
T7 sequence (Q9BXL7 662-765, limits assumed, looked up): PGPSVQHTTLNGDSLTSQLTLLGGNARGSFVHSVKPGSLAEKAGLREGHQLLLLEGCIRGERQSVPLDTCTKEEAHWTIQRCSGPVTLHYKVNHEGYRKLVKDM

A further test concerns the target T8, TIAM2, Q8IVF5.
T8 sequence (Q8IVF5 885-986, limits assumed, looked up): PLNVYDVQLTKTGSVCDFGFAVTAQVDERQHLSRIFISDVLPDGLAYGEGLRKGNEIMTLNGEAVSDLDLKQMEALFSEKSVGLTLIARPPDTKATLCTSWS

Another test deals with T9, DFNB31_2, Q9P202.
T9 sequence (Q9P202 274-371, limits assumed, looked up): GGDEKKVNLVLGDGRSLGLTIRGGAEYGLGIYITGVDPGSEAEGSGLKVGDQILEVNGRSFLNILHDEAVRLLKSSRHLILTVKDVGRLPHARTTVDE

The target of a further test is T10, RAPGEF6, Q8TEU7.
T10 sequence (Q8TEU7 525-625, limits assumed, looked up): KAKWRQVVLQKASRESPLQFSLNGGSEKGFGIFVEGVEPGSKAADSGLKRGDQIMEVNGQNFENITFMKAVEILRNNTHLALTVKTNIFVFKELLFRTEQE

For another test, the target named is T11, DLG3_2, Q92796.
T11 sequence (Q92796 221-321, limits assumed, looked up): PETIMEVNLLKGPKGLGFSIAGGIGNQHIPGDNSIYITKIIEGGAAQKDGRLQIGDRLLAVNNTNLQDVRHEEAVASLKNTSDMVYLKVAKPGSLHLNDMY

The target of the next test is T12, NHERF3_1, Q5T2W1.
T12 sequence (Q5T2W1 4-100, limits assumed, looked up): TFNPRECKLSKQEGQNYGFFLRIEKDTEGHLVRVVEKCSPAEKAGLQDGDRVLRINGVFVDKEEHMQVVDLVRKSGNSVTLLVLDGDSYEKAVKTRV

The target in the next test is T13, SIPA1L2, Q9P2F8.
T13 sequence (Q9P2F8 945-1036, limits assumed, looked up): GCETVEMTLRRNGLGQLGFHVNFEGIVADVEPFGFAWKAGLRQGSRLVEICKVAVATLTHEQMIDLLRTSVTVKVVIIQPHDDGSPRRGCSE

[1] abbreviates: plain residues with an end cap or a label only (N-terminal biotin on a linker: ahx).
[2] abbreviates: plain residues with an end cap or a label only (N-terminal biotin on a linker: ado-ado).

MAST1, Q9Y2H9, sequence (Q9Y2H9 962-1065): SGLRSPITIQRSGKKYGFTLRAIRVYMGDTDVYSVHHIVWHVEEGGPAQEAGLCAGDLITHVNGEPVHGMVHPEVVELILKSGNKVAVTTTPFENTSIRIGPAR
LIMK2, P53671, sequence (P53671 143-248): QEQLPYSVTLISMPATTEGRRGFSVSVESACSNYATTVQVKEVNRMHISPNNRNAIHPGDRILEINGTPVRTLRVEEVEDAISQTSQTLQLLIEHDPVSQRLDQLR
IL16_1, Q14005, sequence (Q14005 210-306): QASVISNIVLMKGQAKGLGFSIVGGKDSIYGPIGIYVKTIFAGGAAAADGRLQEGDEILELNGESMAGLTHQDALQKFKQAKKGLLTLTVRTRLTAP
SCRIB_2, Q14160, sequence (Q14160 857-960): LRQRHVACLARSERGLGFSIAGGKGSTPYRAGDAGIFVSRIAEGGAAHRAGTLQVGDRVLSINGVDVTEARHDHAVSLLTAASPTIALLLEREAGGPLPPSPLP
PARD3_3, Q8TEW0, sequence (Q8TEW0 582-685): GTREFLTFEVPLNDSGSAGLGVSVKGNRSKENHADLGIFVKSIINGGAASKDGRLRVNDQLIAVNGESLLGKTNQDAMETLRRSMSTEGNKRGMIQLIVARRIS
TJP1_2, Q07157, sequence (Q07157 181-274): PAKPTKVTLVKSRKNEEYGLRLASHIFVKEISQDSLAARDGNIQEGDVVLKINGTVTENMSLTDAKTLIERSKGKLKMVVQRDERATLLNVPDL
LNX1_2, Q8TBB1, sequence (Q8TBB1 371-470): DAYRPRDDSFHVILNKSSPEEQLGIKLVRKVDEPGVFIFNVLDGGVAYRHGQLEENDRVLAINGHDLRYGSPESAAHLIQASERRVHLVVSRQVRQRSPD
GIPC2, Q8TF65, sequence (Q8TF65 112-203): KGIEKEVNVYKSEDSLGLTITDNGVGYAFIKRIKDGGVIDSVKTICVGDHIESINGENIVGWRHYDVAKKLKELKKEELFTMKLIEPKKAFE
DLG4_1, P78352, sequence (P78352 62-152): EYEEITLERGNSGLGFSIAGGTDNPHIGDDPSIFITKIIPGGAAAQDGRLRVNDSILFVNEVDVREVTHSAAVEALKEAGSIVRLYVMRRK
PDZRN4_1, Q6ZMN7, sequence (Q6ZMN7 213-318): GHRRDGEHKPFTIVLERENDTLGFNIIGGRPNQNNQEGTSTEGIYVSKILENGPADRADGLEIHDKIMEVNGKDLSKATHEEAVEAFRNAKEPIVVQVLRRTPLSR
HTRA2, O43464, sequence (O43464 355-458): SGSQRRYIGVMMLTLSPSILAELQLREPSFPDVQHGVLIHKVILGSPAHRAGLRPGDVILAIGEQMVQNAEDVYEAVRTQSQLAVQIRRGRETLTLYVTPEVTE

B1: CNTNAP4, Q9C0A0 (peptide)
chain: VNENQKEYFF
Regarding B1, the pKd result with NHERF3_3, Q5T2W1 (setting [1]) was “below the threshold”; with HTRA2, O43464 (setting [1]) it was “below the threshold”; with SCRIB_2, Q14160 (setting [1]) it was “below the threshold”; with PARD3_3, Q8TEW0 (setting [1]), 5.32; with MAST1, Q9Y2H9 (setting [1]), 4.3; in the test with LNX1_2, Q8TBB1 (setting [1]), “below the threshold”. The negative-log Kd (pKd) result with GIPC2, Q8TF65 (setting [1]) was “below the threshold”; with SHANK1, Q9Y566 (setting [1]), “below the threshold”; in the test with SNTB1, Q13884 (setting [1]), “below the threshold”; in the test with PDZRN4_1, Q6ZMN7 (setting [1]) it was “below the threshold”; with DLG3_1, Q92796 (setting [1]), “below the threshold”; in the test with LIMK2, P53671 (setting [1]) it was “below the threshold”. Further, the pKd entry with DLG4_1, P78352 (setting [1]) is “below the threshold”; with SNTA1, Q13424 (setting [1]) it was “below the threshold”; in the test with DLG3_3, Q92796 (setting [1]) it was “below the threshold”; in the test with CARD11, Q9BXL7 (setting [1]), “below the threshold”; in the test with TIAM2, Q8IVF5 (setting [1]), 4.62; with TJP1_2, Q07157 (setting [1]), “below the threshold”. Also, the pKd entry with DFNB31_2, Q9P202 (setting [1]) was “below the threshold”; with RAPGEF6, Q8TEU7 (setting [1]), “below the threshold”; with DLG3_2, Q92796 (setting [1]), “below the threshold”; in the test with NHERF3_1, Q5T2W1 (setting [1]) it was 4.91; with SIPA1L2, Q9P2F8 (setting [1]), “below the threshold”; with IL16_1, Q14005 (setting [1]), “below the threshold”.

B2: USH1C, Q9Y6N9 (peptide)
chain: KEYDDELTFF
Regarding B2, the pKd result is “below the threshold” with NHERF3_3, Q5T2W1 (setting [1]); “below the threshold” with HTRA2, O43464 (setting [1]); “below the threshold” with SCRIB_2, Q14160 (setting [1]); 5.09 with PARD3_3, Q8TEW0 (setting [1]); 4.52 with MAST1, Q9Y2H9 (setting [1]); “below the threshold” with LNX1_2, Q8TBB1 (setting [1]). For the same molecule, the negative logarithm of the Kd (pKd) result was “below the threshold” with GIPC2, Q8TF65 (setting [1]); 5.25 with SHANK1, Q9Y566 (setting [1]); “below the threshold” with SNTB1, Q13884 (setting [1]); “below the threshold” in the test with PDZRN4_1, Q6ZMN7 (setting [1]); “below the threshold” in the test with DLG3_1, Q92796 (setting [1]); “below the threshold” with LIMK2, P53671 (setting [1]). For the same molecule, the pKd entry in the test with DLG4_1, P78352 (setting [1]) was “below the threshold”; with SNTA1, Q13424 (setting [1]), 3.49; in the test with DLG3_3, Q92796 (setting [1]) it was “below the threshold”; with CARD11, Q9BXL7 (setting [1]) it was “below the threshold”; in the test with TIAM2, Q8IVF5 (setting [1]) it was “below the threshold”; with TJP1_2, Q07157 (setting [1]), “below the threshold”. Moreover, the negative logarithm of the Kd (pKd) result is “below the threshold” in the test with DFNB31_2, Q9P202 (setting [1]); “below the threshold” in the test with RAPGEF6, Q8TEU7 (setting [1]); 3.61 with DLG3_2, Q92796 (setting [1]); 4.27 with NHERF3_1, Q5T2W1 (setting [1]); “below the threshold” in the test with SIPA1L2, Q9P2F8 (setting [1]); “below the threshold” with IL16_1, Q14005 (setting [1]).

B3: SLC1A3, P43003 (peptide)
chain: EKPIDSETKM
Regarding B3, the negative-log Kd (pKd) is 3.61 with NHERF3_3, Q5T2W1 (setting [2]); “below the threshold” with HTRA2, O43464 (setting [2]); “below the threshold” with SCRIB_2, Q14160 (setting [2]); “below the threshold” in the test with PARD3_3, Q8TEW0 (setting [2]); 4.67 in the test with MAST1, Q9Y2H9 (setting [2]); “below the threshold” with LNX1_2, Q8TBB1 (setting [2]). Besides, the negative logarithm of the Kd (pKd) entry is “below the threshold” in the test with GIPC2, Q8TF65 (setting [2]); 3.76 with SHANK1, Q9Y566 (setting [2]); “below the threshold” with SNTB1, Q13884 (setting [2]); “below the threshold” with PDZRN4_1, Q6ZMN7 (setting [2]); “below the threshold” in the test with DLG3_1, Q92796 (setting [2]); “below the threshold” with LIMK2, P53671 (setting [2]). Moreover, the pKd is 3.49 in the test with DLG4_1, P78352 (setting [2]); “below the threshold” with SNTA1, Q13424 (setting [2]); “below the threshold” with DLG3_3, Q92796 (setting [2]); “below the threshold” in the test with CARD11, Q9BXL7 (setting [2]); “below the threshold” in the test with TIAM2, Q8IVF5 (setting [2]); “below the threshold” in the test with TJP1_2, Q07157 (setting [2]). Further, the pKd result in the test with DFNB31_2, Q9P202 (setting [2]) is “below the threshold”; with RAPGEF6, Q8TEU7 (setting [2]) it was “below the threshold”; with DLG3_2, Q92796 (setting [2]) it was “below the threshold”; with NHERF3_1, Q5T2W1 (setting [2]), 5.23; with SIPA1L2, Q9P2F8 (setting [2]) it was “below the threshold”; with IL16_1, Q14005 (setting [2]), “below the threshold”.

B4: FMNL3, Q8IVF7 (peptide)
chain: DAAHHDESNC
As to B4, the negative-log Kd (pKd) entry with NHERF3_3, Q5T2W1 (setting [2]) was “below the threshold”; in the test with HTRA2, O43464 (setting [2]) it was “below the threshold”; in the test with SCRIB_2, Q14160 (setting [2]) it was “below the threshold”; with PARD3_3, Q8TEW0 (setting [2]) it was “below the threshold”; with MAST1, Q9Y2H9 (setting [2]), “below the threshold”; with LNX1_2, Q8TBB1 (setting [2]) it was “below the threshold”. Further, the pKd with GIPC2, Q8TF65 (setting [2]) was 3.68; with SHANK1, Q9Y566 (setting [2]), “below the threshold”; with SNTB1, Q13884 (setting [2]), “below the threshold”; in the test with PDZRN4_1, Q6ZMN7 (setting [2]) it was “below the threshold”; in the test with DLG3_1, Q92796 (setting [2]), “below the threshold”; in the test with LIMK2, P53671 (setting [2]), “below the threshold”. Besides, the pKd entry is “below the threshold” with DLG4_1, P78352 (setting [2]); “below the threshold” in the test with SNTA1, Q13424 (setting [2]); “below the threshold” in the test with DLG3_3, Q92796 (setting [2]); “below the threshold” in the test with CARD11, Q9BXL7 (setting [2]); 3.8 with TIAM2, Q8IVF5 (setting [2]); “below the threshold” in the test with TJP1_2, Q07157 (setting [2]). Besides, the pKd result in the test with DFNB31_2, Q9P202 (setting [2]) was “below the threshold”; with RAPGEF6, Q8TEU7 (setting [2]) it was “below the threshold”; with DLG3_2, Q92796 (setting [2]), 4.09; in the test with NHERF3_1, Q5T2W1 (setting [2]), “below the threshold”; with SIPA1L2, Q9P2F8 (setting [2]), “below the threshold”; in the test with IL16_1, Q14005 (setting [2]), “below the threshold”.
